{
  "source": "paper PMC3418412",
  "key": {"purified Hsp90-Y313E": {"biological_target": "purified Hsp90-Y313E (UniProt P07900)"}, "purified wild type Hsp90": {"biological_target": "purified wild type Hsp90 (UniProt P07900)"}},
  "data": [
    {"substance": "purified AHA1 protein (from UniProt O95433 1-338) (natural protein)", "values": [
      {"measurement": "Kd", "setting": "purified Hsp90-Y313E", "result": 3.7, "unit": "µM"},
      {"measurement": "Kd", "setting": "purified wild type Hsp90", "result": 13, "unit": "µM"}
    ]}
  ]
}
